Data on 12 molecules can be found in patent US20190300590A1 (PROTAGONIST THERAPEUTICS, published 2019).

Where two headings read alike, the source gives them in different places. Bridges are numbered along the chain shown (N, C = ends). Where no end group is shown, it is not given here. [ ]: non-standard residue; d: D form. The star is where a group is joined. 2Nal = N[C@@H](Cc1ccc2ccccc2c1)C(=O)O; AEF = NCCOc1ccc(C[C@H](N)C(=O)O)cc1; Palmitoyl = CCCCCCCCCCCCCCCC(=O)*; AllylGly = C=CC[C@H](N)C(=O)O; Thp = NC1(C(=O)O)CCOCC1; Abu = CC[C@H](N)C(=O)O A value given as a limit tells only on which side of the number the result lay.

For assay [1], the target named is T1, IL23R_huFC (human, UniProt Q5VWK5 24-353).
T1 sequence (looked up): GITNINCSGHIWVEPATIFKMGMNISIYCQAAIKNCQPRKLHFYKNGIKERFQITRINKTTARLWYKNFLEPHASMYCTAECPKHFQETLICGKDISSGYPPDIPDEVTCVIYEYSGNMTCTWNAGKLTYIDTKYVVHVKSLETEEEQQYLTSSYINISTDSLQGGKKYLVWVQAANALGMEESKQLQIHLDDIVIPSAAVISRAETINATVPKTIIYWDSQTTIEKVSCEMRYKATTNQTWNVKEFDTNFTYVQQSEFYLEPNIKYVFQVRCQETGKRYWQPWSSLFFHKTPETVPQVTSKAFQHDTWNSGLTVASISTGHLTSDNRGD
Put plainly: IL23-IL23R competitive binding ELISA.

The target in a further assay is T2, IL-23R on DB cells (human, UniProt Q5VWK5 24-629).
T2 sequence (looked up): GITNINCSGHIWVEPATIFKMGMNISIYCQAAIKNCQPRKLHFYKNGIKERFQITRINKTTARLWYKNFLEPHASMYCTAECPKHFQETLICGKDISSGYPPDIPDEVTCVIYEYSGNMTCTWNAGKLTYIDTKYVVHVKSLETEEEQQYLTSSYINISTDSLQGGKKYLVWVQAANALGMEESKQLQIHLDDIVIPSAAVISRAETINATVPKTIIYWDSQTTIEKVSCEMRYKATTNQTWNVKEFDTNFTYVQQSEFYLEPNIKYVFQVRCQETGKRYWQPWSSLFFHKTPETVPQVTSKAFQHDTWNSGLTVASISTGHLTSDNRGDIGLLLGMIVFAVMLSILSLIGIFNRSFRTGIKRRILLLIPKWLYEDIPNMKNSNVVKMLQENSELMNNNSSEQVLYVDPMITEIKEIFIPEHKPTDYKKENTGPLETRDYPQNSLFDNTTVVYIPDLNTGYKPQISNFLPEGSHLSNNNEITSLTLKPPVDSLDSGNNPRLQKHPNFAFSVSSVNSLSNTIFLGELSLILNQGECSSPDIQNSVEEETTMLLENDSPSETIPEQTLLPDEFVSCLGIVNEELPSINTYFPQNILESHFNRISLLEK
The experiment in a line: cell-based or functional assay.

The target in assay [2] is T3, Rat IL-23R_huFC (rat, UniProt F1LX96 39-369).
T3 sequence: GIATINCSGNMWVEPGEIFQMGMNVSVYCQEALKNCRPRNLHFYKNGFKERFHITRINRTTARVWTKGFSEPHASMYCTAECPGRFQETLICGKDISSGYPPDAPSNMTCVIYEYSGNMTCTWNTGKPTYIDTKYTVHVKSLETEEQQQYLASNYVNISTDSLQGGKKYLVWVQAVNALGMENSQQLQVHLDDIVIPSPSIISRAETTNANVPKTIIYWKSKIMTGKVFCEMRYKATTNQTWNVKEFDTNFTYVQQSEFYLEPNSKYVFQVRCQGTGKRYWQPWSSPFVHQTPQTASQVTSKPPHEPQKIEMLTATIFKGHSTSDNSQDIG
Put plainly: rat IL-23R competitive binding ELISA.

Assay [3] deals with T4, IL23R_huFC (human, UniProt Q5VWK5 24-353).
T4 sequence (looked up): T1 sequence (looked up)
The experiment in a line: human ELISA vs IL-23.

Assay [4] deals with T5, IL-23R on human cells (IL-23R-expressing DB cells; human NK cells) (human, UniProt Q5VWK5 24-629).
T5 sequence (looked up): T2 sequence (looked up)
Put plainly: cell-based or functional assay.

Assay [5] has as its target T5, IL-23R on human cells …. The experiment in a line: cell-based or functional assay. The source holds these as a separate data set.
The target in assay [6] is Rat IL-23R_huFC (rat). The experiment in a line: rat ELISA vs IL-23.
For assay [7], the target named is T5, IL-23R on human cells …. Put plainly: cell-based or functional assay. The source holds these as a separate data set.
Assay [8] concerns the target Rat IL-23R_huFC (rat). Put plainly: rat ELISA vs IL-23. This is another data set of the same source.
The target of assay [9] is T4, IL23R_huFC. Put plainly: human ELISA vs IL-23. This is another data set of the same source.
In assay [10] the target is Rat IL-23R_huFC (rat). Put plainly: IL-23/IL-23R competitive binding ELISA, rat.
A further assay has as its target T6, Cyno IL-23R_huFC (cyno, UniProt G7NWY5 24-353).
T6 sequence: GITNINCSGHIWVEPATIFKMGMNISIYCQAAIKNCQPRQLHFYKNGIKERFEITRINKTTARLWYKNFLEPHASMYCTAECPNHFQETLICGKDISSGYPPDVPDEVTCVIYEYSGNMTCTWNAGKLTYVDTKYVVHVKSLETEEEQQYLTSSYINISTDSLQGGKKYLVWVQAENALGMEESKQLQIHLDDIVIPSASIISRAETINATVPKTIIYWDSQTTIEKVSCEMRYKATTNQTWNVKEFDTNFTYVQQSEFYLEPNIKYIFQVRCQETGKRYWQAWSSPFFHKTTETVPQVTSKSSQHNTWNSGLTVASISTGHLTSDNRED
Put plainly: IL-23/IL-23R competitive binding ELISA, cyno.

In the assay with IL23R_huFC [1], Ac-CQTWQCYW[dL]ENG-NH2 (cysteine pairing not given here) [Ac-CQTWQCYW-[(D)Leu]-ENG-NH2] yielded a 50% inhibitory concentration (IC50) of 319 nM. This counts as sub-micromolar.

B1: Ac-CSTWQCYWLKHGGE-NH2 (peptide)
peptide: Ac-CSTWQCYWLKHGGE-NH2
modifications: disulfide 1-6
SMILES: CC(=O)N[C@H]1CSSC[C@@H](C(=O)N[C@@H](Cc2ccc(O)cc2)C(=O)N[C@@H](Cc2c[nH]c3ccccc23)C(=O)N[C@@H](CC(C)C)C(=O)N[C@@H](CCCCN)C(=O)N[C@@H](Cc2c[nH]cn2)C(=O)NCC(=O)NCC(=O)N[C@@H](CCC(=O)O)C(N)=O)NC(=O)[C@H](CCC(N)=O)NC(=O)[C@H](Cc2c[nH]c3ccccc23)NC(=O)[C@H]([C@@H](C)O)NC(=O)[C@H](CO)NC1=O
For B1, in the assay with IL-23R on DB cells, the “pStat3 HTRF IC50” value amounted to 2 nM. Besides, in the assay with Rat IL-23R_huFC [2], the IC50 came out at 24 nM.
As for CQTWQCYWXENG (not fully specified; Ac; Ogl; NH2) [Ac-CQTWQCYW-[Ogl]-ENG-NH2], the “pStat3 HTRF IC50” value in the assay with IL-23R on DB cells amounted to 76 nM.

B2: [Ac-Cyclo-[[Abu]-QTWQC]-[Phe(4-OMe)]-[2-Nal]-[α-MeLys+-ENG-NH2]2DIG (peptide)
peptide: XQTWQCFXKENG
modifications: not fully specified; as bracketed in name; thioether cyclo; DIG linker through a-MeLys
Turning to B2, the half-inhibitory concentration (IC50) was less than 10 nM with IL23R_huFC [3] and 10 to 25 nM with Rat IL-23R_huFC [6]. The “pStat3 HTRF IC50” value in assay [4] was less than 10 nM. In addition, in assay [5], the “NK cell assay IC50 (IFNγ)” value is less than 25 nM.
Take XNTWQXFXXKNN (as bracketed in name; Pen-Pen disulfide; DIG linker) [[Ac-[Pen]-NTWQ-[Pen]-[Phe(4-CONH2)]-[2-Nal]-[Aib]-KNN-NH2]2 DIG]: the “NK cell assay IC50 (IFNγ)” value in assay [7] is less than 10 nM.
In the case of CADWVXYWHTFGXK (as bracketed in name; cyclized via Cys and Pen) [Ac-CADWV-[(D)Pen]-YWHTFG-[AEA]-[(D)-Lys]-NH2], the IC50 with Rat IL-23R_huFC [8] was in the range of 1000 to 10000 nM.
Regarding CQTWQCYWXLNG (Ac; Z as printed (not explained); NH2) [Ac-CQTWQCYWZ-LNG-NH2], the IC50 in the assay with IL23R_huFC [1] stood at 800 nM. This lies in the sub-micromolar range.
Consider [AllylGly]ADWV[AllylGly]YWHTFG (staple 1-6 (inferred)) [SEQ ID NO. 1001 peptide (drawing CHEM-US-00115)], for which, in the assay with IL23R_huFC [9], the half-inhibitory concentration (IC50) is roughly 30000 nM.
On to CQTWQCYWLENG (not fully specified; Ac; α-MeLeu at 9; NH2) [Ac-CQTWQCYW-[α-MeLeu]-ENG-NH2], for which the “pStat3 HTRF IC50” value with IL-23R on DB cells was 5 nM. The half-maximal inhibitory concentration (IC50) in the assay with Rat IL-23R_huFC [2] is 27 nM.
For Ac-CQTWQCYWK(Palmitoyl)ENG-NH2 (cysteine pairing not given here) [Ac-CQTWQCYW-[K(Palm)]-ENG-NH2], the IC50 with IL23R_huFC [1] came out at 4880 nM.
As to Ac-[Abu]QTWQC[AEF][2Nal][Thp]ENN-NH2 (thioether 1-6) [Peptide 980], the IC50 with Rat IL-23R_huFC [10] stood at 3 nM; with Cyno IL-23R_huFC, 1.3 nM.
In the case of CQTWQCXWXENG (not fully specified; Ac; X7 = Cha; X9 = hLeu; NH2) [Ac-CQTWQC-[Cha]-W-[hLeu]-ENG-NH2], the IC50 in the assay with IL23R_huFC [1] was roughly 6000 nM.
